For this data set, the target named is MdNAC5A (Malus x domestica (Fuji / Cripp's Pink), UniProt A0A498K6T8 1-364). Description: EMSA; EMSA/Gel-Shift Kit (Beyotime) per instructions; buffer, salt, pH and temperature not stated. As to conditions: protein: recombinant; tags: His (pET-32a); chain copies: 2; label: 3' biotin (both strands); blunt. (A gel shift assay detects complexes by their altered migration in electrophoresis.)
MdNAC5A, sequence (A0A498K6T8 entry or part of it): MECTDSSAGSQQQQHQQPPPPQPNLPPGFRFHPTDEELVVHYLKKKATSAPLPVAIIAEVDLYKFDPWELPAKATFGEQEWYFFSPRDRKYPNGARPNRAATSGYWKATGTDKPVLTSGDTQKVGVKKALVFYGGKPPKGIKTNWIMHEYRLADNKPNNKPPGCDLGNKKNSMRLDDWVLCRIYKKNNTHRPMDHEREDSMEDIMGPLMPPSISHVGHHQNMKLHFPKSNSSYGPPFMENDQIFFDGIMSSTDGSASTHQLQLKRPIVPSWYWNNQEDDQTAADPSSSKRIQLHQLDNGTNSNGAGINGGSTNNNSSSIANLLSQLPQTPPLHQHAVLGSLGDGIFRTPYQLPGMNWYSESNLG

B1: MdACS1 probe (dsDNA)
DNA 1: CCTGTGACAATATTACATGTGGCATGTCAATTGAGA
DNA 2: TCTCAATTGACATGCCACATGTAATATTGTCACAGG
Consider B1, for which the binding result was “binds”.
